Columns and labels:
Assay in all cases: holdup assay
Parameters in all cases: key: below the threshold = too weak to quantify, mostly under pKd 3.1 to 4
Details in all cases: plain residues with an end cap or a label only (N-terminal biotin on a linker: ado-ado)
[1] = target: T1, APBA2_2, Q99767
T1 sequence (Q99767 654-744, limits assumed, looked up): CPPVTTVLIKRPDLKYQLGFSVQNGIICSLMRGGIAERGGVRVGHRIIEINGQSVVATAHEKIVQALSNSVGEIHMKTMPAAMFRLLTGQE

[2] = target: T2, CARD11, Q9BXL7
T2 sequence (Q9BXL7 662-765, limits assumed, looked up): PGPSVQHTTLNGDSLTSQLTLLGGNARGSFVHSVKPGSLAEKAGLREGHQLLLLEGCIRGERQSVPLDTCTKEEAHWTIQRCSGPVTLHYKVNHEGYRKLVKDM

[3] = target: CASK, O14936
Chain of CASK, O14936 (O14936 487-570): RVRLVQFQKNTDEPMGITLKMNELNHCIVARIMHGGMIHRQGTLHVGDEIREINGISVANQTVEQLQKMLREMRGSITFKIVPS

[4] = target: T3, DFNB31_2, Q9P202
T3 sequence (Q9P202 274-371, limits assumed, looked up): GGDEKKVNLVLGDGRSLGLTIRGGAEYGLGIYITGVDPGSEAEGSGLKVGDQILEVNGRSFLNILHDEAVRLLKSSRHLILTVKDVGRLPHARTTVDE

[5] = target: T4, DLG3_2, Q92796
T4 sequence (Q92796 221-321, limits assumed, looked up): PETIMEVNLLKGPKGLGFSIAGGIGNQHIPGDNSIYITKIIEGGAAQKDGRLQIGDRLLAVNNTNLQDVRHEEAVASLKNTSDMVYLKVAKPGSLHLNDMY

[6] = target: T5, DLG3_3, Q92796
T5 sequence (Q92796 374-475, limits assumed, looked up): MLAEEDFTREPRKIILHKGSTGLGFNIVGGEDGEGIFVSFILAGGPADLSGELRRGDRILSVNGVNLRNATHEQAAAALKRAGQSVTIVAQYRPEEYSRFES

[7] = target: DLG4_1, P78352
Chain of DLG4_1, P78352 (P78352 62-152): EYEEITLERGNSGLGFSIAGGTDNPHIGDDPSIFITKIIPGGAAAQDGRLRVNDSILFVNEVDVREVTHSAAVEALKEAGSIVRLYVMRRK

[8] = target: FRMPD2_3, Q68DX3
Chain of FRMPD2_3, Q68DX3 (Q68DX3 1073-1166): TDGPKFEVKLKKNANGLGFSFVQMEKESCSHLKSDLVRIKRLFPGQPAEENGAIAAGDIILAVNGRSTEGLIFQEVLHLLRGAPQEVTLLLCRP

[9] = target: GRIP2_3, Q9C0E4
Chain of GRIP2_3, Q9C0E4 (Q9C0E4 238-339): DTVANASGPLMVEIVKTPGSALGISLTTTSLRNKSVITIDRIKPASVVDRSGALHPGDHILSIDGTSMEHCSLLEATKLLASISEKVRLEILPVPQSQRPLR

[10] = target: GRIP2_4, Q9C0E4
Chain of GRIP2_4, Q9C0E4 (Q9C0E4 446-548): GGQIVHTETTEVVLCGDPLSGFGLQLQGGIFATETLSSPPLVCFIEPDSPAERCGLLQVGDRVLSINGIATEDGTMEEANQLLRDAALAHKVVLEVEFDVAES

[11] = target: GRIP2_5, Q9C0E4
Chain of GRIP2_5, Q9C0E4 (Q9C0E4 544-642): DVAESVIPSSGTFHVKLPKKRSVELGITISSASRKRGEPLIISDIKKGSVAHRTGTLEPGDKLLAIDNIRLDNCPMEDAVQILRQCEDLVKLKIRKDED

[12] = target: GRIP2_6, Q9C0E4
Chain of GRIP2_6, Q9C0E4 (Q9C0E4 648-740): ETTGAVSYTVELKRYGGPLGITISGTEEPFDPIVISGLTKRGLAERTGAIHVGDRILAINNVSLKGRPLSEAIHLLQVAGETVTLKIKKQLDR

[13] = target: IL16_3, Q14005
Chain of IL16_3, Q14005 (Q14005 1107-1207): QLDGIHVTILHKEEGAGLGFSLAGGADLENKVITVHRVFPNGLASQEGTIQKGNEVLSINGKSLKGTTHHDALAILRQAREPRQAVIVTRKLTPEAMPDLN

[14] = target: Inadl_1, Q8NI35
Chain of Inadl_1, Q8NI35 (Q8NI35 113-229): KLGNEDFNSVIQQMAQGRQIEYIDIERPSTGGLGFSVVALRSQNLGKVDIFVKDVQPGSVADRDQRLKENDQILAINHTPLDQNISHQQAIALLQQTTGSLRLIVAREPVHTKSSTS

[15] = target: Inadl_8, Q8NI35
Chain of Inadl_8, Q8NI35 (Q8NI35 1425-1530): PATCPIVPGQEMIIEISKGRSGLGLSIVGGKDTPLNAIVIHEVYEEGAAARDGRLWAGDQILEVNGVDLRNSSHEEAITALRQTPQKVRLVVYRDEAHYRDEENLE

[16] = target: LDB3, O75112
Chain of LDB3, O75112 (O75112 1-94): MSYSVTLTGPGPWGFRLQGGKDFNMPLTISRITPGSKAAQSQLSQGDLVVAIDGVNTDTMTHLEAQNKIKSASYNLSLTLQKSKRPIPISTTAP

[17] = target: LIMK2, P53671
Chain of LIMK2, P53671 (P53671 143-248): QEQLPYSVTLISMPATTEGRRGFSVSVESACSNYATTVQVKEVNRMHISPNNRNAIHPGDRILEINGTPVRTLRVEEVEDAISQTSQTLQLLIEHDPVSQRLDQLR

[18] = target: T6, LNX2_2, Q8N448
T6 sequence (Q8N448 334-432, limits assumed, looked up): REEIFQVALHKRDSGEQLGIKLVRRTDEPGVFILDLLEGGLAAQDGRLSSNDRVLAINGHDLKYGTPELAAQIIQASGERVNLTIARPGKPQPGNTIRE

[19] = target: MAGI2_4, Q86UL8
Chain of MAGI2_4, Q86UL8 (Q86UL8 772-865): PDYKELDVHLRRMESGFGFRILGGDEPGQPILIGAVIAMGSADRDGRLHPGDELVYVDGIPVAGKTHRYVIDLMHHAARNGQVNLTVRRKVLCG

[20] = target: MAGI2_6, Q86UL8
Chain of MAGI2_6, Q86UL8 (Q86UL8 1141-1229): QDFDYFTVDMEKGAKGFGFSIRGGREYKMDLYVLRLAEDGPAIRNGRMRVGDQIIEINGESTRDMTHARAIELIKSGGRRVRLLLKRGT

[21] = target: MAGI3_2, Q5TCQ9
Chain of MAGI3_2, Q5TCQ9 (Q5TCQ9 398-503): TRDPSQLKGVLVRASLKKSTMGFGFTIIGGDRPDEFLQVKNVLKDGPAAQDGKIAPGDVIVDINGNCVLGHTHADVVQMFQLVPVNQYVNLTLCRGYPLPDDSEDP

[22] = target: T7, MPDZ_12, O75970
T7 sequence (O75970 1857-1958, limits assumed, looked up): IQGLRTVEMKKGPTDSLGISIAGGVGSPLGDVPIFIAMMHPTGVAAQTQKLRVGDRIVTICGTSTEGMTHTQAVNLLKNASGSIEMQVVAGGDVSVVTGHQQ

[23] = target: T8, MPP2, Q14168
T8 sequence (Q14168 180-250, limits assumed, looked up): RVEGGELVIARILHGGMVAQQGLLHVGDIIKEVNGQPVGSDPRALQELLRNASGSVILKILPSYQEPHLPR

[24] = target: T9, PDZD7_3, Q9H5P4
T9 sequence (Q9H5P4 857-944, limits assumed, looked up): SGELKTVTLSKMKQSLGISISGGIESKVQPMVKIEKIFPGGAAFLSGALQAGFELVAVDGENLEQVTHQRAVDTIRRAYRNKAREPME

[25] = target: PTPN3, P26045
Chain of PTPN3, P26045 (P26045 505-587): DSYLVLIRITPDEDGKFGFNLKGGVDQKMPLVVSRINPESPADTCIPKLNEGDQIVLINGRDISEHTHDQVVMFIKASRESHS

[26] = target: T10, SHANK1, Q9Y566
T10 sequence (Q9Y566 658-767, limits assumed, looked up): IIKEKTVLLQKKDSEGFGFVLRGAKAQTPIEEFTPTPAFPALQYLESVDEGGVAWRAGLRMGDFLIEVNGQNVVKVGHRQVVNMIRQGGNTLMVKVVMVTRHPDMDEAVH

[27] = target: TJP1_3, Q07157
Chain of TJP1_3, Q07157 (Q07157 416-512): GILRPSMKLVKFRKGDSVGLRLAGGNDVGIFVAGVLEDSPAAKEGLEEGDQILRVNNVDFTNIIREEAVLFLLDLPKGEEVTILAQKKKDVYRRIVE

[28] = target: T11, TJP3_3, O95049
T11 sequence (O95049 375-456, limits assumed, looked up): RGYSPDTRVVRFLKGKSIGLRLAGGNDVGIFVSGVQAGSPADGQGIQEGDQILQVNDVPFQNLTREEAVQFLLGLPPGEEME

Measured: pKd

IPLDGETEEL [MYOZ1, Q9NP98]
4.04: [25]
4.46: [16]
below the threshold: all other assays above

QMNQTLPVQV [EPHB3, P54753]
3.97: [25]
3.56: [6]
3.54: [26]
3.55: [15]
3.53: [22]
5.12: [18]
3.7: [19]
below the threshold: all other assays above

DDEDRLVIEI [ZNF831, Q5JPB2]
3.57: [16]
4.76: [18]
3.64: [14]
4: [5]
below the threshold: all other assays above

Reference: paper PMC9482650, “Quantitative fragmentomics allow affinity mapping of interactomes” (Nature Communications, 2022)
